Data published in US20190077860A1 (EISAI R AND D MANAGEMENT, published 2019).
Positions count from the first letter of the chain named. One block for each binder: values may come before it.

Experiments:
Assay in all cases: ELISA
[1] = molecular target: T1, human EphA2 extracellular region-SEAP-His protein (human, UniProt P29317 24-537)
T1 construct: extracellular domain; also called hEphA2-SEAP-His

[2] = molecular target: T2, human EphA8 extracellular region-SEAP-His protein (human, UniProt P29322 28-542)
T2 construct: extracellular domain; also called hEphA8-SEAP-His
T2 sequence (looked up): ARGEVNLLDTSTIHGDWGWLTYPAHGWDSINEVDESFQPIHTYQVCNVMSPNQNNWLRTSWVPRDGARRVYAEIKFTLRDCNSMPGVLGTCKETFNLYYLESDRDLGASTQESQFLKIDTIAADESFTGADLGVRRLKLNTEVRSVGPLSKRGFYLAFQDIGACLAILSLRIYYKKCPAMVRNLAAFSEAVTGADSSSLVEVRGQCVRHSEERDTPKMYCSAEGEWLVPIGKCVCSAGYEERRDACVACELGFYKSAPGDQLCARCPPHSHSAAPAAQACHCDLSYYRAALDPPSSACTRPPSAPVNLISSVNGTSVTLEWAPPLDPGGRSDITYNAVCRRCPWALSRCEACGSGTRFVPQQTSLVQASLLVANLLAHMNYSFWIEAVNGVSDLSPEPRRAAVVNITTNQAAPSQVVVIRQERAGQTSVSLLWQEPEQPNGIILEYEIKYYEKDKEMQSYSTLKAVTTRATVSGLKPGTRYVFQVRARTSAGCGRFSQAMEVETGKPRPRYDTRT

[3] = molecular target: T3, human EphA4 extracellular region-SEAP-His protein (human, UniProt P54764 20-547)
T3 construct: also called hEphA4-SEAP-His

[4] = molecular target: T4, human EphA1 extracellular region-SEAP-His protein (human, UniProt P21709 26-547)
T4 construct: extracellular domain; also called hEphA1-SEAP-His
T4 sequence (looked up): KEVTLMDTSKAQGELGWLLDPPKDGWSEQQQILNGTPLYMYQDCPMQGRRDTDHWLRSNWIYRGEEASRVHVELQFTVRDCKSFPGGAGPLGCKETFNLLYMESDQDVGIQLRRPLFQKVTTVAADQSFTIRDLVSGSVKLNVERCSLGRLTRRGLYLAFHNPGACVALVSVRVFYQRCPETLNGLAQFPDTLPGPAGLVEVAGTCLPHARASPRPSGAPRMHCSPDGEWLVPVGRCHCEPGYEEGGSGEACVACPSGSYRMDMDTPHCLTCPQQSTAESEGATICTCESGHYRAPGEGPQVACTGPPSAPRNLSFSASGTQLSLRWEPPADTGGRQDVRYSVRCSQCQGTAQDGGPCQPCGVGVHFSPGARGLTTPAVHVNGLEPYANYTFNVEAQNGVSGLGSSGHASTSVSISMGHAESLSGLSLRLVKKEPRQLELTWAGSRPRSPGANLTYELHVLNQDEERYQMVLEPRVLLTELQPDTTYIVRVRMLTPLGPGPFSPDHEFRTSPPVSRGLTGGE

[5] = molecular target: T5, human EphB1 extracellular region-SEAP-His protein (human, UniProt P54762 18-540)
T5 construct: extracellular domain; also called hEphB1-SEAP-His
T5 sequence (looked up): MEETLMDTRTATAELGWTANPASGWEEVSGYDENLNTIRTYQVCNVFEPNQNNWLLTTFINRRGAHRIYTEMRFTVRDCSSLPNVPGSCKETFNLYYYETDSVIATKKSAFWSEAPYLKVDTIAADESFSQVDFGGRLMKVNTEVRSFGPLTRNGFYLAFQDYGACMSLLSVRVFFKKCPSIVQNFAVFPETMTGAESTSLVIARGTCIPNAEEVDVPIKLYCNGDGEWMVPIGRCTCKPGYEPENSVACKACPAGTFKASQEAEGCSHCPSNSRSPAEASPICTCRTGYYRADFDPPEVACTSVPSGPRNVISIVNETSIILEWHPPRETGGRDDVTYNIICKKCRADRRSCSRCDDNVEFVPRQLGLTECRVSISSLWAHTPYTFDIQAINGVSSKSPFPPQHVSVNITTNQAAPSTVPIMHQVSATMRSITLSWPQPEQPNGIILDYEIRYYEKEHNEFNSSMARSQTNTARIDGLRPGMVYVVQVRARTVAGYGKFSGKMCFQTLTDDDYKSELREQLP

[6] = molecular target: T6, human EphA3 extracellular region-SEAP-His protein (human, UniProt P29320 21-541)
T6 construct: extracellular domain; also called hEphA3-SEAP-His
T6 sequence (looked up): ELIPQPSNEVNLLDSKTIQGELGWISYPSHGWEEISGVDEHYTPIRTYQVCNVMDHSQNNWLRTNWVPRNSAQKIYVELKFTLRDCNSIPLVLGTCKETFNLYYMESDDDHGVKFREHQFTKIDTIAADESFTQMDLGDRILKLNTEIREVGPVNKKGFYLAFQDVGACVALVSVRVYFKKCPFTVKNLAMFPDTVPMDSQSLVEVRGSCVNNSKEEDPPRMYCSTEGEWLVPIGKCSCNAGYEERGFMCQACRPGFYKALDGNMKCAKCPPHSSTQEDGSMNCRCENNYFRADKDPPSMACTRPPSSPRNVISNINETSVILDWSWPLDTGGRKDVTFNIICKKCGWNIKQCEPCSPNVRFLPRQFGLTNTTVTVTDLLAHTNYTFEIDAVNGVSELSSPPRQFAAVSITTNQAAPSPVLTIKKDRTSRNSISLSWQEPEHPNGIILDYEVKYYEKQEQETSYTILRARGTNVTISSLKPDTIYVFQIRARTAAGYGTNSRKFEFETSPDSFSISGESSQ

T1 sequence (P29317 24-537): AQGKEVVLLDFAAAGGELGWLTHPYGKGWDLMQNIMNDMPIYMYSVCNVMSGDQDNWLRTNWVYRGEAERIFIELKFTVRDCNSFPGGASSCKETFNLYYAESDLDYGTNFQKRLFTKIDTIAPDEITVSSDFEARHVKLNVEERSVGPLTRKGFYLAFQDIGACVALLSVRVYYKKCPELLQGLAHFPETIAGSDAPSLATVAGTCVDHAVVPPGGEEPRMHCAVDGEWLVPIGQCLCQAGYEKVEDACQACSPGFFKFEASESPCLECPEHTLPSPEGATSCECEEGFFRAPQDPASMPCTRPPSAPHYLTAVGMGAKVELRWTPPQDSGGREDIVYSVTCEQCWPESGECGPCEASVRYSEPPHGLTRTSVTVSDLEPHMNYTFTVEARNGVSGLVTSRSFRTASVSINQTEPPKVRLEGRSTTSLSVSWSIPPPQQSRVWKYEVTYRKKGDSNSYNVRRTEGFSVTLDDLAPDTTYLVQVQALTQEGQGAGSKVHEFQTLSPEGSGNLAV
T3 sequence (P54764 20-547): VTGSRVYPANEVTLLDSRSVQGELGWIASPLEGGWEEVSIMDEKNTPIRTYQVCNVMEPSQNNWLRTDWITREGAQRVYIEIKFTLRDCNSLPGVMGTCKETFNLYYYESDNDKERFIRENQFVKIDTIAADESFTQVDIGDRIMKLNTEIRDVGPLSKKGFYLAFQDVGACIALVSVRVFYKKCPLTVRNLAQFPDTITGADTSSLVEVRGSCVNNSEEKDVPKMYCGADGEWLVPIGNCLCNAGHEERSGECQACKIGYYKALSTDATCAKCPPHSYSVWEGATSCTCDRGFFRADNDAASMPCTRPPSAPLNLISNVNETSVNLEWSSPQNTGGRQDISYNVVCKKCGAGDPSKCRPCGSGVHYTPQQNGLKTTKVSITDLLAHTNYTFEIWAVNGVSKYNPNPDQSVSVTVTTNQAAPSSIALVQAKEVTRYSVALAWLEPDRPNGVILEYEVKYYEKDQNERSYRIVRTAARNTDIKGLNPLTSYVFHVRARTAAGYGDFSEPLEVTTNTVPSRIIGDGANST

- A450 as % of hEphA4-SEAP-His [1]: 5%
- A450 as % of hEphA4-SEAP-His [2]: 5%
- A450 as % of hEphA4-SEAP-His [3]: 100%
- A450 as % of hEphA4-SEAP-His [4]: 5%
- A450 as % of hEphA4-SEAP-His [5]: 5%
- A450 as % of hEphA4-SEAP-His [6]: 5.1%
B1: humanized antibody No. 93 (antibody, human IgG1, kappa)
heavy: QVQLVQSGSELKKPGASVKVSCKASGYTFTDYSMHWVRQAPGQGLEWMGWINTETGEPTYAQGFTGRFVFSLDTSVSTAYLQISSLKAEDTAVYYCARIPLYYYGSRYWYFDVWGQGTTVTVSSASTKGPSVFPLAPSSKSTSGGTAALGCLVKDYFPEPVTVSWNSGALTSGVHTFPAVLQSSGLYSLSSVVTVPSSSLGTQTYICNVNHKPSNTKVDKRVEPKSCDKTHTCPPCPAPPAAAPSVFLFPPKPKDTLMISRTPEVTCVVVDVSHEDPEVQFNWYVDGVEVHNAKTKPREEQFNSTFRVVSVLTVVHQDWLNGKEYKCKVSNKGLPAPIEKTISKTKGQPREPQVYTLPPSREEMTKNQVSLTCLVKGFYPSDIAVEWESNGQPENNYKTTPPMLDSDGSFFLYSKLTVDKSRWQQGNVFSCSVMHEALHNHYTQKSLSLSPG
light: EIVMTQSPATLSVSPGERATLSCRASENIYRNLAWYQQKPGQSPRLLIYAATNLADGIPARFSGSGSGTEYTLTISSLQSEDFAVYYCQHFWGTPWTFGQGTKVEIKRTVAAPSVFIFPPSDEQLKSGTASVVCLLNNFYPREAKVQWKVDNALQSGNSQESVTEQDSKDSTYSLSSTLTLSKADYEKHKVYACEVTHQGLSSPVTKSFNRGEC
notes: human Ig kappa; also called L2-4/HA1

- A450 as % of hEphA4-SEAP-His [1]: 4.2%
- A450 as % of hEphA4-SEAP-His [2]: 4.4%
- A450 as % of hEphA4-SEAP-His [3]: 100%
- A450 as % of hEphA4-SEAP-His [4]: 4.5%
- A450 as % of hEphA4-SEAP-His [5]: 4.6%
- A450 as % of hEphA4-SEAP-His [6]: 4.8%
B2: humanized antibody No. 95 (antibody, human IgG1, kappa)
heavy: B1 heavy with Q62D, G63D, T65K
light: B1 light
notes: human Ig kappa; also called L2-4/HK1

- A450 as % of hEphA4-SEAP-His [1]: 5.3%
- A450 as % of hEphA4-SEAP-His [2]: 5.4%
- A450 as % of hEphA4-SEAP-His [3]: 100%
- A450 as % of hEphA4-SEAP-His [4]: 5.6%
- A450 as % of hEphA4-SEAP-His [5]: 5.6%
- A450 as % of hEphA4-SEAP-His [6]: 5.5%
B3: humanized antibody No. 96 (antibody, human IgG1, kappa)
heavy: B1 heavy with E46K, Q62D, G63D, T65K
light: B1 light
notes: human Ig kappa; also called L2-4/HK2
